Source: patent US20130281314A1

Legend:
USP19 (human) = USP19 (human) (UniProt O94966); test: anti-HA IP-MS, HEK293T cells
USP15 (human) [1] = biological target: USP15 (human) (UniProt Q9Y4E8); test: anti-HA IP-MS, HEK293T cells
USP8 (human) [2] = biological target: USP8 (human) (UniProt P40818); test: anti-HA IP-MS, HEK293T cells
USP14 (human) [3] = biological target: USP14 (human) (UniProt P54578); test: anti-HA IP-MS, HEK293T cells
USP25 (human) [4] = biological target: USP25 (human) (UniProt Q9UHP3); test: anti-HA IP-MS, HEK293T cells
USP11 (human) [5] = biological target: USP11 (human) (UniProt P51784); test: anti-HA IP-MS, HEK293T cells
USP9X (human) [6] = biological target: USP9X (human) (UniProt Q93008); test: anti-HA IP-MS, HEK293T cells
USP47 (human) [7] = biological target: USP47 (human) (UniProt Q96K76); test: anti-HA IP-MS, HEK293T cells
USP34 [8] = test: anti-HA IP-MS, HEK293T cells
USP10 [9] = test: anti-HA IP-MS, HEK293T cells
USP24 (human) [10] = biological target: USP24 (human) (UniProt Q9UPU5); test: anti-HA IP-MS, HEK293T cells
BRCC36 (human) [11] = biological target: BRCC36 (human) (UniProt P46736); test: anti-HA IP-MS, HEK293T cells
UCHL5 (human) [12] = biological target: UCHL5 (human) (UniProt Q9Y5K5); test: anti-HA IP-MS, HEK293T cells
UCHL1 [13] = biological target: UCHL1 (UniProt P09936); test: anti-HA IP-MS, HEK293T cells
OTUB1 (human) [14] = biological target: OTUB1 (human) (UniProt Q96FW1); test: anti-HA IP-MS, HEK293T cells
USP13 (human) [15] = biological target: USP13 (human) (UniProt Q92995); test: anti-HA IP-MS, HEK293T cells
USP15 (human) [16] = biological target: USP15 (human) (UniProt Q9Y4E8); test: anti-HA IP-MS, WT HCT116 cells
USP8 (human) [17] = biological target: USP8 (human) (UniProt P40818); test: anti-HA IP-MS, WT HCT116 cells
USP14 (human) [18] = biological target: USP14 (human) (UniProt P54578); test: anti-HA IP-MS, WT HCT116 cells
USP25 (human) [19] = biological target: USP25 (human) (UniProt Q9UHP3); test: anti-HA IP-MS, WT HCT116 cells
USP11 (human) [20] = biological target: USP11 (human) (UniProt P51784); test: anti-HA IP-MS, WT HCT116 cells
USP9X (human) [21] = biological target: USP9X (human) (UniProt Q93008); test: anti-HA IP-MS, WT HCT116 cells
USP47 (human) [22] = biological target: USP47 (human) (UniProt Q96K76); test: anti-HA IP-MS, WT HCT116 cells
USP34 [23] = test: anti-HA IP-MS, WT HCT116 cells
USP10 [24] = test: anti-HA IP-MS, WT HCT116 cells
USP24 (human) [25] = biological target: USP24 (human) (UniProt Q9UPU5); test: anti-HA IP-MS, WT HCT116 cells
BRCC36 (human) [26] = biological target: BRCC36 (human) (UniProt P46736); test: anti-HA IP-MS, WT HCT116 cells
UCHL5 (human) [27] = biological target: UCHL5 (human) (UniProt Q9Y5K5); test: anti-HA IP-MS, WT HCT116 cells
UCHL1 [28] = biological target: UCHL1 (UniProt P09936); test: anti-HA IP-MS, WT HCT116 cells
OTUB1 (human) [29] = biological target: OTUB1 (human) (UniProt Q96FW1); test: anti-HA IP-MS, WT HCT116 cells
USP13 (human) [30] = biological target: USP13 (human) (UniProt Q92995); test: anti-HA IP-MS, WT HCT116 cells

Chain of UCHL1 (P09936 1-220 limits assumed): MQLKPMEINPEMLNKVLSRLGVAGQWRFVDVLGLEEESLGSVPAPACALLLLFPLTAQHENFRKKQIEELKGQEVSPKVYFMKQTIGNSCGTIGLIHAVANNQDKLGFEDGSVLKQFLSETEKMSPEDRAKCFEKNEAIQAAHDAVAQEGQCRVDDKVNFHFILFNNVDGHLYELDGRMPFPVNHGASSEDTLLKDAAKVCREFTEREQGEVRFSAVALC
Chain of USP25 (human) (Q9UHP3 whole entry): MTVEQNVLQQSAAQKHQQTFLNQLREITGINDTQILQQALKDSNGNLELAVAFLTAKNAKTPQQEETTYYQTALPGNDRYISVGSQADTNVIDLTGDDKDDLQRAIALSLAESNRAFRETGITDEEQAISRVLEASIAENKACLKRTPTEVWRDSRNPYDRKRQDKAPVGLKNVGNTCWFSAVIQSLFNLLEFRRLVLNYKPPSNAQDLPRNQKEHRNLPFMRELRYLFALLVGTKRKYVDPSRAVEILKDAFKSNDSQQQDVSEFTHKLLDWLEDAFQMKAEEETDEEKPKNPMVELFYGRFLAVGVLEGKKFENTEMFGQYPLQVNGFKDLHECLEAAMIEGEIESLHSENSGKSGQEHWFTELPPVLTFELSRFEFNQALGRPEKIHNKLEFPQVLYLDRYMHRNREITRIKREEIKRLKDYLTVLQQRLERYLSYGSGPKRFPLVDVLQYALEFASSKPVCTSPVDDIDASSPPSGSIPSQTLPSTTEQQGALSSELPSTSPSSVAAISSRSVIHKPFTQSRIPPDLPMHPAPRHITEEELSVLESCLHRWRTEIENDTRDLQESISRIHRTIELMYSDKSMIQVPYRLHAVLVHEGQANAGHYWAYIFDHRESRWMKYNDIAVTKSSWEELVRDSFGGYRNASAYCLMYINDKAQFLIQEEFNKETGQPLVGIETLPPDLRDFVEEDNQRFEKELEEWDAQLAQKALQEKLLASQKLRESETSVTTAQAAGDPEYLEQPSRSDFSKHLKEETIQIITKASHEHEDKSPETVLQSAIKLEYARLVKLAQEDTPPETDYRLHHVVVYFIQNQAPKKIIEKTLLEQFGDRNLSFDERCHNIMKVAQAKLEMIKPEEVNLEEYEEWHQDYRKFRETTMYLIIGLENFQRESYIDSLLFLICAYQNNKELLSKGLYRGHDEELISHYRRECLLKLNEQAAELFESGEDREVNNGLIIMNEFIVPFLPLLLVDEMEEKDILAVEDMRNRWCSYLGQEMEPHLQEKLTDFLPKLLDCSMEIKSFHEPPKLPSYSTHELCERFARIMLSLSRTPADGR
Chain of USP13 (human) (Q92995 whole entry): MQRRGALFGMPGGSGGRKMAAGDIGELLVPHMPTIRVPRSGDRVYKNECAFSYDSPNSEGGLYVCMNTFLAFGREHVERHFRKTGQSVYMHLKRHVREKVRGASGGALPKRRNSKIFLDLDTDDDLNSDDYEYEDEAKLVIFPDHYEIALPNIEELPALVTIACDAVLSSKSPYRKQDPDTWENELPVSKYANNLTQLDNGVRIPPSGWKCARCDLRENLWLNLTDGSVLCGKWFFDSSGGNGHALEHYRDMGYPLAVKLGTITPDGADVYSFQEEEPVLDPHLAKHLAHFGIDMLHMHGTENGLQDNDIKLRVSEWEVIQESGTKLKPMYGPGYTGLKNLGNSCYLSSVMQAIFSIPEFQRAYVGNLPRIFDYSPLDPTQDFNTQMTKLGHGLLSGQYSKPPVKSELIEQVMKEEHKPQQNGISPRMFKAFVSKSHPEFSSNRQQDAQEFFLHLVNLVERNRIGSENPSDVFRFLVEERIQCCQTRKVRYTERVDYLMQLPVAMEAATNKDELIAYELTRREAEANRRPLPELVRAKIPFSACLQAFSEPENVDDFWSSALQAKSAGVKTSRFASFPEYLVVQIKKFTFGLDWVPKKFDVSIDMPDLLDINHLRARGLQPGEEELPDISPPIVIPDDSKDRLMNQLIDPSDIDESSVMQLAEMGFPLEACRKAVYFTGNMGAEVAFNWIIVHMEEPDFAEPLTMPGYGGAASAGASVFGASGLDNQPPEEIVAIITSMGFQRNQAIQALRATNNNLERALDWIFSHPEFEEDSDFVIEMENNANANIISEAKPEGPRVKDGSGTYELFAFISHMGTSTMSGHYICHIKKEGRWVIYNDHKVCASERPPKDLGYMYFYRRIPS
Chain of USP10 (chain, as listed by the source limits assumed): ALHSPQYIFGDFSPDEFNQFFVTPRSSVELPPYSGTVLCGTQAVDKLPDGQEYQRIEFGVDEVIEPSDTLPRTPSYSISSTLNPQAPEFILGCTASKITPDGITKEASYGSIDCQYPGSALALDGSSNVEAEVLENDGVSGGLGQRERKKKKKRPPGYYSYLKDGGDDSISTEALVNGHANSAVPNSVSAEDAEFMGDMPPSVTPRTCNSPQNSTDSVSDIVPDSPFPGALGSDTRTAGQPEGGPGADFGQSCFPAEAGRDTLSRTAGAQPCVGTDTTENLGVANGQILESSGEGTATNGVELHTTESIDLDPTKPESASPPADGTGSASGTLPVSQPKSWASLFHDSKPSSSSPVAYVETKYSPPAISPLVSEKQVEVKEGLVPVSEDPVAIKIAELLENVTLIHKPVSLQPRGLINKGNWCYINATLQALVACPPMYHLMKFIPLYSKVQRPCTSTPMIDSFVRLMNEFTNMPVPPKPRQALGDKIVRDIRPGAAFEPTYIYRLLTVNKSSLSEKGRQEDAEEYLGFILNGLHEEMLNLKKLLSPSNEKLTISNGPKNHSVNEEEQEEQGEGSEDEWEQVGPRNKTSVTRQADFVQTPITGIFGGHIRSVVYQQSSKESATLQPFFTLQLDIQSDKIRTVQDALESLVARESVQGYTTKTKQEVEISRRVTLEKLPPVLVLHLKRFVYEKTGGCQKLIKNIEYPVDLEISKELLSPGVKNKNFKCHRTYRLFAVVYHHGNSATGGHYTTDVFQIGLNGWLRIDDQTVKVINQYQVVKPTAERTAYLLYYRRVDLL
Chain of BRCC36 (human) (P46736 2-316 limits assumed): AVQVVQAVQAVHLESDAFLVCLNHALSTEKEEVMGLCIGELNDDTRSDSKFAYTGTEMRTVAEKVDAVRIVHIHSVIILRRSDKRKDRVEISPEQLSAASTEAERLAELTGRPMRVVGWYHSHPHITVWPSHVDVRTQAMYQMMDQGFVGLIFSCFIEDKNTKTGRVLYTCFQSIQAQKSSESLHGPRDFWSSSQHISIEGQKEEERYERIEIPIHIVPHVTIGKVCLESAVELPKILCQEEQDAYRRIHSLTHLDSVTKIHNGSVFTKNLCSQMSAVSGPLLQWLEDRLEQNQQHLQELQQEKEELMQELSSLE
Chain of USP11 (human) (P51784 whole entry): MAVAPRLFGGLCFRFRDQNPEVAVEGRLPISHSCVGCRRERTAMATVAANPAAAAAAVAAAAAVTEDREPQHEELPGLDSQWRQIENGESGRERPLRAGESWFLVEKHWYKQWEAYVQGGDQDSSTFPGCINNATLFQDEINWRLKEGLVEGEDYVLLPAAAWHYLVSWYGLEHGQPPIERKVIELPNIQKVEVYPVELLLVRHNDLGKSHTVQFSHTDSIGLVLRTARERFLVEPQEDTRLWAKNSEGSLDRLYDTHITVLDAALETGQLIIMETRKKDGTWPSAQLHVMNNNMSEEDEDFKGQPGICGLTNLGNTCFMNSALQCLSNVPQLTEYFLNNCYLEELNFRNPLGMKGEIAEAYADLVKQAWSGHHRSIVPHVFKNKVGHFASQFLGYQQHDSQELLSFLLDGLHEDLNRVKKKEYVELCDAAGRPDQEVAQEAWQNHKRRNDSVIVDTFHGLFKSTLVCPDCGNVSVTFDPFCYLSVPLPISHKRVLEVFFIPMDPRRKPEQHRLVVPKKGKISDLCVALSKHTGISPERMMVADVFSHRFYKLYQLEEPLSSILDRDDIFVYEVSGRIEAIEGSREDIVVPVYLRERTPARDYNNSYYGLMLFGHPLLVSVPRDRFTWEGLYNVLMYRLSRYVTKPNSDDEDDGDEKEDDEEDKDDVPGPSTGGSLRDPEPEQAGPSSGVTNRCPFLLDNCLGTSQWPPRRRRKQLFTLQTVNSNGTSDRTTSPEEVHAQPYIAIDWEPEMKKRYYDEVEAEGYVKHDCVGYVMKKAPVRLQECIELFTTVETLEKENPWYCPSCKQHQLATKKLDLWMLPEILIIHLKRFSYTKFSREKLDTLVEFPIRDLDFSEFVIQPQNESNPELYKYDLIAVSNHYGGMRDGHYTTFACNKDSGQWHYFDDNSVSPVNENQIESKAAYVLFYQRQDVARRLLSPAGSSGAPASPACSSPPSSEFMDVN
Chain of UCHL5 (human) (Q9Y5K5 whole entry): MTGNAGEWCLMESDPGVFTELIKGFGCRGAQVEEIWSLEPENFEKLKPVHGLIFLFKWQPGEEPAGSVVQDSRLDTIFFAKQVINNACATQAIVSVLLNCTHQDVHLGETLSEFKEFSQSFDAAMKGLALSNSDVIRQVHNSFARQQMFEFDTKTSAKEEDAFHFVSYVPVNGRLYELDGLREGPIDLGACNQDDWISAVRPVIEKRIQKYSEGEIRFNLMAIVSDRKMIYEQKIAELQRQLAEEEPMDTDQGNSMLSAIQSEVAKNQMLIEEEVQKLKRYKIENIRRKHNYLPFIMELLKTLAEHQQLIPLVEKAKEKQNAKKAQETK
Chain of OTUB1 (human) (Q96FW1 2-271 limits assumed): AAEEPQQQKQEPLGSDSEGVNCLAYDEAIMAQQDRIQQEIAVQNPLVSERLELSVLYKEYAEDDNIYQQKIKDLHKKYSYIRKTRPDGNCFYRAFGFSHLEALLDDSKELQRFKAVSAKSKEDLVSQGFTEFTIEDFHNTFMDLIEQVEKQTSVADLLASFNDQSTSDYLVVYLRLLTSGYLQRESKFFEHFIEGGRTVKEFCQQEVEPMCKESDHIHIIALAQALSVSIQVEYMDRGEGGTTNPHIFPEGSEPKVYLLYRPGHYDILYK

total peptides (unique peptides) (USP19 (human)): 54 peptides
total peptides (unique peptides) (USP15 (human) [1]): 1 peptides
total peptides (unique peptides) (USP8 (human) [2]): 1 peptides
total peptides (unique peptides) (USP14 (human) [3]): 4 peptides
total peptides (unique peptides) (USP25 (human) [4]): 2 peptides
total peptides (unique peptides) (USP11 (human) [5]): 4 peptides
total peptides (unique peptides) (USP9X (human) [6]): 40 peptides
total peptides (unique peptides) (USP47 (human) [7]): 2 peptides
total peptides (unique peptides) (USP34 [8]): 1 peptides
total peptides (unique peptides) (USP10 [9]): 6 peptides
total peptides (unique peptides) (USP24 (human) [10]): 20 peptides
total peptides (unique peptides) (BRCC36 (human) [11]): 0 peptides
total peptides (unique peptides) (UCHL5 (human) [12]): 9 peptides
total peptides (unique peptides) (UCHL1 [13]): 3 peptides
total peptides (unique peptides) (OTUB1 (human) [14]): 9 peptides
total peptides (unique peptides) (USP13 (human) [15]): 0 peptides
total peptides (unique peptides) (USP15 (human) [16]): 7 peptides
total peptides (unique peptides) (USP8 (human) [17]): 3 peptides
total peptides (unique peptides) (USP14 (human) [18]): 3 peptides
total peptides (unique peptides) (USP25 (human) [19]): 34 peptides
total peptides (unique peptides) (USP11 (human) [20]): 10 peptides
total peptides (unique peptides) (USP9X (human) [21]): 12 peptides
total peptides (unique peptides) (USP47 (human) [22]): 0 peptides
total peptides (unique peptides) (USP34 [23]): 0 peptides
total peptides (unique peptides) (USP10 [24]): 8 peptides
total peptides (unique peptides) (USP24 (human) [25]): 1 peptides
total peptides (unique peptides) (BRCC36 (human) [26]): 1 peptides
total peptides (unique peptides) (UCHL5 (human) [27]): 6 peptides
total peptides (unique peptides) (UCHL1 [28]): 0 peptides
total peptides (unique peptides) (OTUB1 (human) [29]): 10 peptides
total peptides (unique peptides) (USP13 (human) [30]): 1 peptides
Substance: HA-UbΔGG
